The nature of series [1]: Partition coefficient, n-octanol / 0.1 M phosphate buffer. Format: physicochemical. Particulars: shake-flask, 2.0 mL n-octanol / 2.0 mL 0.1 M phosphate buffer pH 7.4, room temperature, 20 uL radioactive sample, mixed twice 1 min, radioactivity counting; mean ± SD; read-out: Partition coefficient, log (n-octanol/0.1 M phosphate buffer). How it is done: The partition coefficients of ^111In-labeled 3-arm and 4-arm DOTA-α-MSH were measured using 2.0 mL n-octanol as the organic phase and 2.0 mL 0.l M phosphate buffer as the aqueous phase (pH 7.4 for plasma). N-octanol and the buffer were pre-mixed twice using a mechanical mixer for 1 min at room temperature. Then, 20 µL radioactive sample were added and mixed twice using a mechanical mixer for 1 min at room temperature. The radioactivity of 200 uL of each phase was measured after centrifugation. Calculation of log (n-octanol/0.l M phosphate buffer) was performed.

Series [2] can be described thus: Stability analysis in plasma, liver and kidney of mice, ex vivo TLC. The settings on record: γ-counter, mean ± SD, n = 3 mice. On the set-up: species or system mouse.

Take `CSCC[C@H](NC(=O)[C@H](CO)NC(=O)[C@H](Cc1ccc(O)cc1)NC(=O)[C@H](CO)NC(C)=O)C(=O)N[C@@H](CCC(=O)O)C(=O)N[C@@H](Cc1c[nH]cn1)C(=O)N[C@@H](Cc1ccccc1)C(=O)N[C@@H](CCCNC(=N)N)C(=O)N[C@@H](Cc1c[nH]c2ccccc12)C(=O)NCC(=O)N[C@@H](CCCCNC(=S)Nc1ccc(C[C@H]2CN(CC(=O)O)CCN(CC(=O)O)CCN(CC(=O)O)CCN2CC(=O)O)cc1)C(=O)N1CCC[C@H]1C(=O)N[C@H](C(=O)O)C(C)C` [^111In-labeled 4-arm DOTA-α-MSH, metal not drawn]: in series [1], the logD was -0.13 ± 0.04. Also, the “Fraction ratio of intact radiotracer, Kidney (%)” value turned out to be 96.1 ± 2.0% in series [2] (10 min after i.v. injection 3.7 MBq/mouse), 93.3 ± 3.5% in series [2] (60 min after i.v. injection 3.7 MBq/mouse), 84.5 ± 3.3% in series [2] (120 min after i.v. injection 3.7 MBq/mouse) and 80.5 ± 2.8% in series [2] (180 min after i.v. injection 3.7 MBq/mouse).

Values taken from publication PMC6430397, “The pharmacological properties of 3-arm or 4-arm DOTA constructs for conjugation to α-melanocyte-stimulating hormone analogues for melanoma imaging” (PLoS ONE, 2019).
